According to the supplement of paper PMC9112550, “Optimization of the antimicrobial peptide Bac7 by deep mutational scanning” (BMC Biology, 2022):

test system: Escherichia coli TOP10; test: shrunken log2 fold change of peptide-encoding DNA abundance (4.5 h post-induction vs induction); higher = less antimicrobial activity (less host growth inhibition); settings: time post-induction: 4.5 h; library: site-saturation at positions 5, 18, 19, 20
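Further: peptides expressed intracellularly from a pBAD plasmid library in pooled LB shake-flask culture, induced with 0.3% L-arabinose, DNA abundance read by NGS, three biological replicates, DESeq2 with apeglm shrinkage.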

Sequence	shrunken log2 fold change
RRIRNRPPRLPRPRPRPDNLPRP	-1.04
RRIRCRPPRLPRPRPRPDDRPRP	-0.0204
RRIRWRPPRLPRPRPRPCRGPRP	-0.0518
RRIRIRPPRLPRPRPRPQCYPRP	-0.0646
RRIRKRPPRLPRPRPRPHAYPRP	0.0163
RRIRDRPPRLPRPRPRPAYYPRP	-0.947
RRIRKRPPRLPRPRPRPWIEPRP	0.00935
RRIRKRPPRLPRPRPRPGTGPRP	0.1
RRIRYRPPRLPRPRPRPCACPRP	0.0891
RRIRGRPPRLPRPRPRPHSRPRP	0.26
RRIRMRPPRLPRPRPRPYSWPRP	-0.0788
RRIRKRPPRLPRPRPRPFGGPRP	-0.043
RRIRQRPPRLPRPRPRPAMDPRP	-0.00901
RRIRMRPPRLPRPRPRPMFCPRP	-0.0875
RRIRDRPPRLPRPRPRPQFEPRP	0.0888
RRIRDRPPRLPRPRPRPQKVPRP	-0.114
RRIRGRPPRLPRPRPRPVRMPRP	0.963
RRIRCRPPRLPRPRPRPIQTPRP	0.299
RRIRGRPPRLPRPRPRPSWWPRP	0.537
RRIRYRPPRLPRPRPRPAFDPRP	0.105
RRIRQRPPRLPRPRPRPAWHPRP	0.0212
RRIRERPPRLPRPRPRPWIRPRP	-0.667
RRIRARPPRLPRPRPRPQGIPRP	0.0477
RRIRVRPPRLPRPRPRPWWRPRP	1.25
RRIRTRPPRLPRPRPRPEQHPRP	0.0492

Sequence	shrunken log2 fold change
RRIRLRPPRLPRPRPRPYKYPRP	0.0639
RRIRFRPPRLPRPRPRPKHNPRP	-0.483
RRIRQRPPRLPRPRPRPLHFPRP	-0.0222
RRIRCRPPRLPRPRPRPSMDPRP	-0.182
RRIRTRPPRLPRPRPRPGRTPRP	-0.0318
RRIRGRPPRLPRPRPRPVQKPRP	0.434
RRIRGRPPRLPRPRPRPAVQPRP	0.797
RRIRVRPPRLPRPRPRPCCAPRP	0.151
RRIRLRPPRLPRPRPRPIDAPRP	0.206
RRIRGRPPRLPRPRPRPRKLPRP	0.86
RRIRWRPPRLPRPRPRPVAVPRP	0.465
RRIRTRPPRLPRPRPRPRRVPRP	0.329
RRIRMRPPRLPRPRPRPGSLPRP	0.432
RRIRKRPPRLPRPRPRPICCPRP	0.583
RRIRIRPPRLPRPRPRPEPRPRP	0.563
RRIRNRPPRLPRPRPRPNMMPRP	-0.25
RRIRKRPPRLPRPRPRPLFPPRP	0.161
RRIRIRPPRLPRPRPRPSLCPRP	-0.242
RRIRFRPPRLPRPRPRPLQVPRP	-0.135
RRIRNRPPRLPRPRPRPGKQPRP	-0.406
RRIRDRPPRLPRPRPRPVWDPRP	0.107
RRIRDRPPRLPRPRPRPLSNPRP	-0.247
RRIRTRPPRLPRPRPRPEKRPRP	-0.0149
RRIRRRPPRLPRPRPRPYRNPRP	0.0114
RRIRDRPPRLPRPRPRPGGNPRP	-0.0716

Sequence	shrunken log2 fold change
RRIRTRPPRLPRPRPRPSNFPRP	-0.0603
RRIRRRPPRLPRPRPRPEAPPRP	0.708
RRIRYRPPRLPRPRPRPAWRPRP	0.0762
RRIRWRPPRLPRPRPRPALMPRP	0.159
RRIRQRPPRLPRPRPRPKFIPRP	-0.0852
RRIRCRPPRLPRPRPRPPPTPRP	1.48
RRIRSRPPRLPRPRPRPRALPRP	0.0323
RRIRNRPPRLPRPRPRPMWDPRP	-0.021
RRIRCRPPRLPRPRPRPASEPRP	0.49
RRIRMRPPRLPRPRPRPPLLPRP	0.515
RRIRDRPPRLPRPRPRPHMMPRP	0.158
RRIRDRPPRLPRPRPRPRMMPRP	0.312
RRIRTRPPRLPRPRPRPSHEPRP	-0.299
RRIRIRPPRLPRPRPRPQAHPRP	-0.261
RRIRERPPRLPRPRPRPFTVPRP	-0.00987
RRIRTRPPRLPRPRPRPSQDPRP	-0.355
RRIRQRPPRLPRPRPRPGLPPRP	0.242
RRIRLRPPRLPRPRPRPSRWPRP	-0.279
RRIRYRPPRLPRPRPRPQWLPRP	-0.0323
RRIRIRPPRLPRPRPRPARGPRP	0.624
RRIRARPPRLPRPRPRPSDAPRP	0.396
RRIRMRPPRLPRPRPRPHCRPRP	0.274
RRIRSRPPRLPRPRPRPNLSPRP	-0.425
RRIRLRPPRLPRPRPRPHTVPRP	-0.267
RRIRRRPPRLPRPRPRPCKGPRP	0.0306

Sequence	shrunken log2 fold change
RRIRPRPPRLPRPRPRPVKCPRP	-0.0701
RRIRLRPPRLPRPRPRPVAKPRP	0.123
RRIRMRPPRLPRPRPRPRPNPRP	0.903
RRIRSRPPRLPRPRPRPNIMPRP	-0.49
RRIRLRPPRLPRPRPRPGAFPRP	-0.0131
RRIRPRPPRLPRPRPRPMDFPRP	-0.115
RRIRARPPRLPRPRPRPRSSPRP	0.188
RRIRKRPPRLPRPRPRPGTPPRP	0.824
RRIRKRPPRLPRPRPRPCVYPRP	0.109
RRIRRRPPRLPRPRPRPVFWPRP	0.369
RRIRCRPPRLPRPRPRPHDIPRP	-0.00735
RRIRFRPPRLPRPRPRPLTRPRP	-0.0631
RRIRFRPPRLPRPRPRPHFMPRP	-0.538
RRIRFRPPRLPRPRPRPLFKPRP	-0.279
RRIRVRPPRLPRPRPRPNLIPRP	-0.149
RRIRYRPPRLPRPRPRPFEPPRP	-0.343
RRIRARPPRLPRPRPRPTNNPRP	0.00693
RRIRARPPRLPRPRPRPFAHPRP	0.128
RRIRTRPPRLPRPRPRPDNQPRP	-0.337
RRIRWRPPRLPRPRPRPVIEPRP	0.0398
RRIRCRPPRLPRPRPRPFNVPRP	-0.146
RRIRWRPPRLPRPRPRPMFSPRP	-0.0364
RRIRHRPPRLPRPRPRPNTIPRP	-0.903
RRIRRRPPRLPRPRPRPPSVPRP	0.545
RRIRCRPPRLPRPRPRPYHSPRP	-0.73

Sequence	shrunken log2 fold change
RRIRQRPPRLPRPRPRPDNDPRP	-0.0011
RRIRWRPPRLPRPRPRPLCIPRP	-0.275
RRIRDRPPRLPRPRPRPGDHPRP	0.00849
RRIRSRPPRLPRPRPRPVYDPRP	-0.227
RRIRCRPPRLPRPRPRPGDLPRP	-0.314
RRIRFRPPRLPRPRPRPWLWPRP	-0.052
RRIRNRPPRLPRPRPRPRATPRP	0.659
RRIRLRPPRLPRPRPRPHDMPRP	-0.117
RRIRWRPPRLPRPRPRPQVRPRP	0.037
RRIRVRPPRLPRPRPRPGISPRP	-0.49
RRIRSRPPRLPRPRPRPHDKPRP	-0.214
RRIRERPPRLPRPRPRPMFEPRP	0.000206
RRIRARPPRLPRPRPRPWQWPRP	-0.00151
RRIRARPPRLPRPRPRPFDVPRP	-0.0821
RRIRQRPPRLPRPRPRPKRPPRP	0.135
RRIRSRPPRLPRPRPRPGQPPRP	0.214
RRIRTRPPRLPRPRPRPHSWPRP	-0.0571
RRIRDRPPRLPRPRPRPAHMPRP	-0.125
RRIRTRPPRLPRPRPRPLPDPRP	-0.0997
RRIRERPPRLPRPRPRPGANPRP	0.0574
RRIRPRPPRLPRPRPRPSQAPRP	0.106
RRIRRRPPRLPRPRPRPAIYPRP	-0.148
RRIRRRPPRLPRPRPRPCEQPRP	-0.0395
RRIRSRPPRLPRPRPRPRPDPRP	0.218
RRIRPRPPRLPRPRPRPMGRPRP	-0.0125

Sequence	shrunken log2 fold change
RRIRPRPPRLPRPRPRPFSHPRP	-0.402
RRIRSRPPRLPRPRPRPEYFPRP	-1.04
RRIRGRPPRLPRPRPRPCWAPRP	0.485
RRIRQRPPRLPRPRPRPTNSPRP	-0.225
RRIRKRPPRLPRPRPRPRVNPRP	0.0555
RRIRARPPRLPRPRPRPIIDPRP	0.216
RRIRNRPPRLPRPRPRPDAKPRP	0.162
RRIRERPPRLPRPRPRPTIKPRP	-0.178
RRIRPRPPRLPRPRPRPSFHPRP	0.626
RRIRQRPPRLPRPRPRPMTCPRP	0.0215
RRIRGRPPRLPRPRPRPTYVPRP	-0.144
RRIRMRPPRLPRPRPRPNKAPRP	-0.05
RRIRNRPPRLPRPRPRPDLEPRP	0.124
RRIRPRPPRLPRPRPRPCGAPRP	0.206
RRIRIRPPRLPRPRPRPGFVPRP	0.108
RRIRWRPPRLPRPRPRPDITPRP	0.179
RRIRGRPPRLPRPRPRPKCIPRP	0.0819
RRIRSRPPRLPRPRPRPPQLPRP	0.209
RRIRIRPPRLPRPRPRPFHPPRP	-0.111
RRIRRRPPRLPRPRPRPGSPPRP	0.107
RRIRHRPPRLPRPRPRPRRYPRP	0.0129
RRIRNRPPRLPRPRPRPEKCPRP	-0.0684
RRIRMRPPRLPRPRPRPERYPRP	0.362
RRIRWRPPRLPRPRPRPWCMPRP	-0.0174
RRIRYRPPRLPRPRPRPDMWPRP	-1.03
